Here are results for one molecule from US20060121042A1.

This assay concerns the target hEphA2 (human) (UniProt P29317). In words: ELISA.

Chain of hEphA2 (human) (P29317 25-534 limits assumed): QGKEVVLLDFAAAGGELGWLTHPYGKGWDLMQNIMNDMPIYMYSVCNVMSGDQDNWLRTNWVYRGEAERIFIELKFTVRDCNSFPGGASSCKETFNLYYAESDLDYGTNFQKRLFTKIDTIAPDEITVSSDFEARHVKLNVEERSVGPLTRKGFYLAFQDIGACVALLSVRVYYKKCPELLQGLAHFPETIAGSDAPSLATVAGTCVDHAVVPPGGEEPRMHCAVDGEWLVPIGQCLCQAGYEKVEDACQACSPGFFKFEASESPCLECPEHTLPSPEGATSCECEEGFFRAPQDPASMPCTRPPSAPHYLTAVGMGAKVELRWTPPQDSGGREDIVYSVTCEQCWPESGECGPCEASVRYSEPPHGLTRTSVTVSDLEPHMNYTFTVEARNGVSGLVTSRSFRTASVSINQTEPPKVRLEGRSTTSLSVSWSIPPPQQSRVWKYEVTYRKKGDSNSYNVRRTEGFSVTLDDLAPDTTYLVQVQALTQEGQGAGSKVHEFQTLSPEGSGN

B1: 3F2 (antibody, from another filing, V domains shown)
VH: EVQLVESGGGVVRPGGSLRLSCAASGFTVSDYSMNWVRQAPGKGLEWIGFIRNKANAYTTEYSASVKGRFTISRDDSKNTLYLQMNSLKTEDTAVYYCTTYPRYHAMDSWGQGTMVTVSS
VL: AIQLTQSPSSLSASVGDRVTITCRASQSISNNLHWYLQKPGQSPQLLIYYGFQSISGVPSRFSGSGSGTDFTLTISSLQPEDFATYYCQQANSWPLTFGGGTKLEIK
The molecule B1 registered an ELISA O.D. value of 0.453.
